These are literature values, as cited in article PMC1991591.

Usually Kd stands for the constant that tells how readily two partners part at equilibrium.

This series addresses Fus3 (Saccharomyces cerevisiae) (UniProt P16892).
Sequence of UniProt P16892 (P16892 whole entry): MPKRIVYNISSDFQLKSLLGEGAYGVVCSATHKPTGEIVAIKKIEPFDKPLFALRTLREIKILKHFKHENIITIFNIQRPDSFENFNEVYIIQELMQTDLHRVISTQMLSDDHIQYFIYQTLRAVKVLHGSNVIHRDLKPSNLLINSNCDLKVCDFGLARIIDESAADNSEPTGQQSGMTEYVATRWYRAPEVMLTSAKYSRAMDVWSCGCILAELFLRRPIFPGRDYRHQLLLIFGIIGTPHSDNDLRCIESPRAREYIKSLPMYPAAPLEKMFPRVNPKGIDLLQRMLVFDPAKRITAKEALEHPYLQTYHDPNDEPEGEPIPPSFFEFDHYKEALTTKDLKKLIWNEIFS

With Ste5 (from UniProt P32917), the Kd is 1 µM.
